Eight molecules from PMC4995099, “Drosophila Nanos acts as a molecular clamp that modulates the RNA-binding and repression activities of Pumilio” can be followed below.

The target in data set [1] is T1, Drosophila Pum RNA-binding domain (amino acids 1091–1426), crystallisation construct (Drosophila melanogaster) (UniProt P25822).
T1 sequence: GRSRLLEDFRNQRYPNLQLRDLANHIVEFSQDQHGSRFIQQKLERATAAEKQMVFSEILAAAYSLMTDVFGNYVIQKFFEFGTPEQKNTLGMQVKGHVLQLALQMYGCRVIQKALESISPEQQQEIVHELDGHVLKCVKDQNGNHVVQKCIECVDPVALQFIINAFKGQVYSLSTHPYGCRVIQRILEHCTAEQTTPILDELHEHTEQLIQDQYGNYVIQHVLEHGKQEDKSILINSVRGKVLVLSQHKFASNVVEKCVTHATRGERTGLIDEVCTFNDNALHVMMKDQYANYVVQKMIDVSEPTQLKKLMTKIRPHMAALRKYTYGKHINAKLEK

Data set [2] has as its target T2, Pum PUM-HD WT (EMSA) (UniProt P25822 1091-1426).
T2 sequence: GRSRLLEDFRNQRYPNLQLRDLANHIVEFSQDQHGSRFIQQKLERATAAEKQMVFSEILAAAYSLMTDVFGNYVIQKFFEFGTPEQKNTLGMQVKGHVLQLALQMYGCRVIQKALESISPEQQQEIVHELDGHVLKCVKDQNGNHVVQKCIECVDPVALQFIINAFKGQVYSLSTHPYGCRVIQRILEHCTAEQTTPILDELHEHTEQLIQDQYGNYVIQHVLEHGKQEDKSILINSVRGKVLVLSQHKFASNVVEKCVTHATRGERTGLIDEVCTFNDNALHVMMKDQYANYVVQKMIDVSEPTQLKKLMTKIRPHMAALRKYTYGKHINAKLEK
The experiment in a line: EMSA; N/D; EMSA: 50 mM Tris-HCl pH 7.6, 150 mM NaCl, 2 mM DTT, 2 ug/mL BSA, 0.01% Igepal CA-630, 0.02% bromophenol blue, 20% glycerol, 3 h at 4 C; 1 nM Cy5 RNA or 0.3 nM 32P RNA. Particulars: protein: recombinant; tags: N-terminal 3xFLAG; Halo-tag removed by TEV; label: 5' 32P. For orientation: In EMSA bound probe runs differently from free probe, usually more slowly.

Data set [3] has as its target T3, Pum PUM-HD WT (EMSA);Nos ZC WT (EMSA) (Drosophila melanogaster?;Drosophila …, UniProt P25822;P25724 1091-1426;289-401, |).
T3 sequence 1: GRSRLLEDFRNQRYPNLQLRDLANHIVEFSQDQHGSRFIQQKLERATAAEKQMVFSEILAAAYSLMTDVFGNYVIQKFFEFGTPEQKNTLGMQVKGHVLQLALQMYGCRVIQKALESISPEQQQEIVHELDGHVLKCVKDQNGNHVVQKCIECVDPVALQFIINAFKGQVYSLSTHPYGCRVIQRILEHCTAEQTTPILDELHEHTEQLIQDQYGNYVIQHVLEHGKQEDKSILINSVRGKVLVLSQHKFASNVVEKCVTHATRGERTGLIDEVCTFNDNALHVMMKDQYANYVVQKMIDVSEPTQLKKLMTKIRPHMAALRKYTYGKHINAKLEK
T3 sequence 2: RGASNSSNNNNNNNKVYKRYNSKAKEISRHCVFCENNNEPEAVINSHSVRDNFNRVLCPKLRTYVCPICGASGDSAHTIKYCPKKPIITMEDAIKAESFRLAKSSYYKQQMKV
Description: EMSA; 1 uM Nos ZC; N/D; EMSA: 50 mM Tris-HCl pH 7.6, 150 mM NaCl, 2 mM DTT, 2 ug/mL BSA, 0.01% Igepal CA-630, 0.02% bromophenol blue, 20% glycerol, 3 h at 4 C; 1 nM Cy5 RNA or 0.3 nM 32P RNA. Particulars: protein: recombinant;recombinant, tags: N-terminal 3xFLAG, Halo-tag removed by TEV;C-terminal V5, copies: 1;1, label: 5' 32P.

For data set [4], the target named is T4, Pum RNA-binding domain (crystal);Nos ZF domain (crystal) (Drosophila melanogaster?;Drosophila …, UniProt P25822;P25724 1091-1426;289-401, |).
T4 sequence 1: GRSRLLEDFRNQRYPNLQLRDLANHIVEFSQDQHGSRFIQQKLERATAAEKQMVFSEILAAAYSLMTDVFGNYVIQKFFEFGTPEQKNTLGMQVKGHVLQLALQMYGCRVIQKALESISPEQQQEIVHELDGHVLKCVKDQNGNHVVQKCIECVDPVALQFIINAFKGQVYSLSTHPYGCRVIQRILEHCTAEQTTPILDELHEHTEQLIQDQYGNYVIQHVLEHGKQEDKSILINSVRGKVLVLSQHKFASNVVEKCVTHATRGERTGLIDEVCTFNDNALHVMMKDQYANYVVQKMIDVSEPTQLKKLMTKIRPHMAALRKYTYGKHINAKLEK
T4 sequence 2: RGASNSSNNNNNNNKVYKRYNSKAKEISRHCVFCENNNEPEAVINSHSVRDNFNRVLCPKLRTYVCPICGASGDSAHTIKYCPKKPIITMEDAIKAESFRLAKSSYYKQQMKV
Description: X-ray crystallography; 4.0 A; Zn2+; EMSA: 50 mM Tris-HCl pH 7.6, 150 mM NaCl, 2 mM DTT, 2 ug/mL BSA, 0.01% Igepal CA-630, 0.02% bromophenol blue, 20% glycerol, 3 h at 4 C; 1 nM Cy5 RNA or 0.3 nM 32P RNA. As to conditions: protein: recombinant;recombinant; tags: His6-SUMO removed by Ulp1;His6-SUMO removed by Ulp1; copies: 1;1.

The target of data set [5] is T2, Pum PUM-HD WT (EMSA). The experiment in a line: EMSA; EMSA: 50 mM Tris-HCl pH 7.6, 150 mM NaCl, 2 mM DTT, 2 ug/mL BSA, 0.01% Igepal CA-630, 0.02% bromophenol blue, 20% glycerol, 3 h at 4 C; 1 nM Cy5 RNA or 0.3 nM 32P RNA. As to conditions: protein: recombinant; tags: N-terminal 3xFLAG; Halo-tag removed by TEV.
In data set [6] the target is T2, Pum PUM-HD WT (EMSA). The experiment in a line: EMSA; no stable complex, Pum up to 1 uM; EMSA: 50 mM Tris-HCl pH 7.6, 150 mM NaCl, 2 mM DTT, 2 ug/mL BSA, 0.01% Igepal CA-630, 0.02% bromophenol blue, 20% glycerol, 3 h at 4 C; 1 nM Cy5 RNA or 0.3 nM 32P RNA. Particulars: protein: recombinant; tags: N-terminal 3xFLAG; Halo-tag removed by TEV; label: 5' 32P.
The target of data set [7] is T3, Pum PUM-HD WT (EMSA);Nos ZC WT (EMSA). Description: EMSA; Pum titrated, 1 uM Nos ZC constant; EMSA: 50 mM Tris-HCl pH 7.6, 150 mM NaCl, 2 mM DTT, 2 ug/mL BSA, 0.01% Igepal CA-630, 0.02% bromophenol blue, 20% glycerol, 3 h at 4 C; 1 nM Cy5 RNA or 0.3 nM 32P RNA. As to conditions: protein: recombinant;recombinant, tags: N-terminal 3xFLAG, Halo-tag removed by TEV;C-terminal V5, copies: 1;1, label: 5' 32P.

Regarding “Halo-Nos I376A (full-length) (natural protein)”, the percent repression of the RnLuc WT hb 3´UTR reporter in D.mel-2 cells (endogenous Pum), against Halo-tag alone in data set [1] turned out to be 46%.

In data set [1], “Halo-Nos M378A (full-length) (natural protein)” registered a percent repression of the RnLuc WT hb 3´UTR reporter in D.mel-2 cells (endogenous Pum), against Halo-tag alone of 29%.

In data set [1], “Halo-Nos NZ (aa1-373) (domain or fragment)” gave a percent repression of the RnLuc WT hb 3´UTR reporter in D.mel-2 cells (endogenous Pum), against Halo-tag alone of 14%.

The molecule “Halo-Nos I382A (full-length) (natural protein)” showed a percent repression of the RnLuc WT hb 3´UTR reporter in D.mel-2 cells (endogenous Pum), against Halo-tag alone in data set [1] of 60%.

B1: hb NRE2 ACA RNA (ssRNA)
RNA: AAAUACAACAUAAGCC
For the molecule B1, the binding result (with Pum PUM-HD WT (EMSA) [2]; in data set [3]) was “no binding” throughout.

B2: CycB NRE RNA 14-nt (crystal) (ssRNA)
RNA: UAUUUGUAAUUUAU
As to B2, the binding result in data set [4] is given as “binds”.

B3: hb NRE2 -1C RNA (ssRNA)
RNA: AAACUGUACAUAAGCC
For B3, in the data set with Pum PUM-HD WT (EMSA) [5], the binding result is given as “binds”.

B4: CycB NRE RNA (EMSA) (ssRNA)
RNA: UAUUUGUAAUUUAUAUC
For the molecule B4, the binding result in the data set with Pum PUM-HD WT (EMSA) [6] was “no binding”. Further, in data set [7], the Kd (in general, the constant that tells how readily two partners part at equilibrium) was 12 nM.
